Test results from patent US20180335435A1 (METAFORA BIOSYSTEMS, published 2018).

B1: BLV.RBD fused to a rabbit Fc (rFc) tag, expressed from pCSI expression vector (Fc fusion)
chain: WRCSLSLGNQQWMTTYNQEAKFFISIDQILEAHNQSPFCPRSPRYTLDFVNGYPKIYWPPPQGRRRFGARAMVTYDCEPRCPYVGADHFDCPHWDNASQADQGSFYVNHQTLFLHLKQCHGIFTLTWEIWGYDPLITFSLHKIPAPPQGSAPSTCSKPTCPPPELLGGPSVFIFPPKPKDTLMISRTPEVTCVVVDVSQDDPEVQFTWYINNEQVRTARPPLREQQFDCTIRVVSTLPIAHQDWLRGKEFKCKVHNKALPAPIEKTISKARGQPLEPKVYTMGPPREELSSRSVSLTCMINGFYPSDISVEWEKNGKAEDNYKTTPAVLDSDGSYFLYSKLSVPTSEWQRGDVFTCSVMHEALHNHYTQKSISRSPGK
notes: also called pCSI BLV.RBD rFc
B2: BLV.RBD-mFc ligand (receptor-binding domain of the bovine leukemia virus envelope glycoprotein tagged in frame with the constant fragment of mouse … (Fc fusion)
chain: WRCSLSLGNQQWMTTYNQEAKFFISIDQILEAHNQSPFCPRSPRYTLDFVNGYPKIYWPPPQGRRRFGARAMVTYDCEPRCPYVGADHFDCPHWDNASQADQGSFYVNHQTLFLHLKQCHGIFTLTWEIWGYDPLITFSLHKIPAPPQGSVDVPRDCGCKPCICTVPEVSSVFIFPPKPKDVLTITLTPKVTCVVVDISKDDPEVQFSWFVDDVEVHTAQTQPREEQFNSTFRSVSELPIMHQDWLNGKEFKCRVNSAAFPAPIEKTISKTKGRPKAPQVYTIPPPKEQMAKDKVSLTCMITDFFPEDITVEWQWNGQPAENYKNTQPIMDTDGSYFVYSKLNVQKSNWEAGNTFTCSVLHEGLHNHHTEKSLSHSPGK
notes: Used as a 1/10 dilution, detected with anti-mouse IgG1-Alexa Fluor 488; also called BLV.RBD ligand; BLV.RBD tagged with mouse Fc (mFc)

Legend:
[1] = target: T1, human CAT1 (cationic amino acid transporter-1, SLC7A1) (human, UniProt P30825 1-629); assay: radiolabeled arginine uptake in HEK293T cells expressing BLV.RBD rFc
T1 construct: Endogenous on HEK293T cells or expressed from a human CAT1 vector in QT6, HEK293T or CHO cells; also called CAT1/SLC7A1; Hu-CAT1

[2] = target: T1, human CAT1 (cationic amino acid …)

T1 sequence (P30825 whole entry): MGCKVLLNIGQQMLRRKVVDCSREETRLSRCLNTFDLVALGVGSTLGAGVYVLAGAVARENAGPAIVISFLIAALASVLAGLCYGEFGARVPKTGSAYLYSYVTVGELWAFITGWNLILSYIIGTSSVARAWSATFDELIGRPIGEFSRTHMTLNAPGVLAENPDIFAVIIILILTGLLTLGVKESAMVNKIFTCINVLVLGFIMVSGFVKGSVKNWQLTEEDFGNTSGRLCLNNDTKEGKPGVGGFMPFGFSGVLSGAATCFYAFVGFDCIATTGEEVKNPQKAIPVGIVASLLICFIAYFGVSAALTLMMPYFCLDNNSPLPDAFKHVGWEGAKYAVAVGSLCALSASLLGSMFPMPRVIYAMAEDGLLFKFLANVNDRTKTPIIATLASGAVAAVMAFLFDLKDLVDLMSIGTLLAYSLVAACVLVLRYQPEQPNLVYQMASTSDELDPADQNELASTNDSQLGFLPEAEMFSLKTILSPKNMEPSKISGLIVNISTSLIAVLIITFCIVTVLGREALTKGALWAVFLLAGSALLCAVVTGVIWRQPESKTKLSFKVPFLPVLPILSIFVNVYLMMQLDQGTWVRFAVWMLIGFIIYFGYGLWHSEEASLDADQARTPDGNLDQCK

Row | Binder | binding result [1] | fold increase of binding on CAT1 overexpression against empty vector [2]
1 | B1 | binds | 
2 | B2 |  | 3 fold
